Experimental data reported in patent publication US12710427B2, “Anti-human neurotensin receptor 1 antibody and use thereof” (National Health Research Institutes, priority 2020, dated 2026).
Changes are numbered by the printed parent chain. Names may count otherwise.

Tests used:
NTSR1 on A549 cells = target: T1, NTSR1 on A549 cells (Homo sapiens, UniProt P30989); assay: Flow cytometry (FACS) binding of anti-NTSR1 antibodies on A549 cells; conditions: for FACS binding (%, 1 μg/ml) / FACS binding (%, 10 μg/ml): A549 cells; for FACS binding (%, 1 μg/ml): antibody 1 μg/ml; for FACS binding (%, 10 μg/ml): antibody 10 μg/ml; for EC50: relative mean fluorescence intensity (MFI) on A549 cells; for binding affinity to cell surface NTSR1 compared with h7C3-1: FACS, h7C3-1 variants
T1 construct: endogenous in cells; host or cells: A549 (NSCLC)
T1 sequence (P30989 whole entry): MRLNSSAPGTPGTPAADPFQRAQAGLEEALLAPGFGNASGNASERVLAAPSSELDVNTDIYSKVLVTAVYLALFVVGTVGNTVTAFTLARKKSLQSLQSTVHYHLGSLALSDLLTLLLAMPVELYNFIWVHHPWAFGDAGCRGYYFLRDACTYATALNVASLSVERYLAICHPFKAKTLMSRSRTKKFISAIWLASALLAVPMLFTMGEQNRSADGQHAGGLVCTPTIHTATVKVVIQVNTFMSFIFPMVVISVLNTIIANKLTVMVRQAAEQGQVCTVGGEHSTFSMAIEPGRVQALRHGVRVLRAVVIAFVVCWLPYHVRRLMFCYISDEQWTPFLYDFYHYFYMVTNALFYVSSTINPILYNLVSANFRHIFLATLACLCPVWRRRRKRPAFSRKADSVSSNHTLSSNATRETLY
Description: A total of 1×10^6 cells were reacted with an anti-NTSR1 antibody in 100 μL of FACS buffer (PBS containing 0.5% BSA) for 60 minutes at 4° C. and washed two times to remove excess antibody. Secondary FITC (BD Pharmingen™) conjugated mouse anti-human IgG antibodies were incubated for an additional 60 minutes on ice. Cells were washed again and followed by an additional incubation with 1 ml PBS containing 0.5 mg/mL propidium iodide at 4° C. for 10 minutes. Data were collected on 10,000 living cells by FACS (Bio-Red S3e cell sorter). Fluorescence intensity from channel FL-1 was calculated with Flow Jo flow […] cytometry analysis software.

[1] = system: cyclic ECL2 peptide of NTSR1; assay: NTSR1-binding affinity ELISA (alanine scanning variants); set-up: species or system human; conditions: for effect on h7C3 affinity (in words): compared with parental h7C3
Chain of cyclic ECL2 peptide of NTSR1 (P30989 206-234 limits assumed): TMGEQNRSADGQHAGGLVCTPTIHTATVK
Description: The NTSR1-binding capacity of different antibodies were measured by ELISA. Briefly, NeutrAvidin 96-well plates (Pierce Cat:15128) were coated with cyL2-Biotin peptides at a final concentration of 5 μg/ml at […]. On the following day, the coating solution was removed, and the plates were blocked with 5% (v/v) non-fat dry milk in phosphate buffer saline (PBS) for 1 hour. After washing with PBST, gradient concentrations of anti-NTSR1 antibodies were added in triplicate. After 1 hour of incubation, the plate was washed three times with PBST, followed by the addition of horseradish peroxidase (HRP)-conjugated goat anti-human IgG Fc antibody (100 μL) into each well for an additional hour at RT. Finally, 100 μL of tetramethylbenzidine (TMB) substrate was added into each well to produce color for visualization. After 2 minutes of incubation, 100 μL of 2M H2SO4 was used to stop the reaction. The absorbance of each well was read at 450 nm with a plate reader. Flow cytometry

[2] = alanine scanning of CDR L3 of h7C3-1

B1: 7C3: anti-human NTSR1 antibody with VH SEQ ID NO: 1 and VL SEQ ID NO: 2, full-length IgG with human IgG1 constant domains (antibody, V domains shown)
VH: QVQLQQPGSVLVRPGASVKLSCKASGYTFTSSWIHWAKQRPGQGLEWIGQIRPNSGNTYYNEKFKVKATLTVDTSSSTAYVDLSSLTSEDSAVYYCARYYYGFDYWGQGTLVTVSS
VL: DVLMTQTPLSLPVSLGDQASISCRSSQSIVHSNGNTYLEWYLQKPGQSPKLLIYKVSNRFSGVPDRFSGSGSGTDFTLKISRVEAEDLGVYYCFQGSHLPWTFGGGTKLEIKR
modifications: human IgG1 constant domains; VH SEQUENCE; VL SEQUENCE
B1 was tested, and the “binding to A549 cells” value (NTSR1 on A549 cells; 10 μg/ml, flow cytometry) was “strong binding”, the “FACS binding (%, 1 μg/ml)” value (NTSR1 on A549 cells) was 16.8% and the “FACS binding (%, 10 μg/ml)” value (NTSR1 on A549 cells) was 83.2%. The “EC50” value (NTSR1 on A549 cells) was 11.3 ± 2.8 µg/mL.

B2: h7C3-2: 7C3 variant harboring Y100H mutation in CDR H3 and S97A mutation in CDR L3 (antibody, V domains shown)
VH: B1 VH with Y100H
VL: B1 VL with S97A
B2 was tested, and the “effect on h7C3-1 affinity for peptide (in words)” value (“effect on h7C3-1 affinity” for short) [1, 2] was “no effect”, the “FACS binding (%, 1 μg/ml)” value (NTSR1 on A549 cells) was 86.0% and the “FACS binding (%, 10 μg/ml)” value (NTSR1 on A549 cells) was 99.5%. The “binding affinity to cell surface NTSR1 compared with h7C3-1” value (“binding affinity … compared with h7C3-1” below) (NTSR1 on A549 cells) was “higher affinity” and the “EC50” value (NTSR1 on A549 cells) was 1.5 ± 0.5 µg/mL.

B3: H98A: h7C3-1 variant, H98A in CDR L3 (antibody, V domains shown)
VH: B1 VH with Y100H
VL: B1 VL with H98A
For B3, the “effect on h7C3-1 affinity” value [1, 2] was “no effect” and the “binding affinity … compared with h7C3-1” value (NTSR1 on A549 cells) was “slightly affects”.

B4: N54A: h7C3-2 variant, N54A in CDR H2 (antibody, V domains shown)
VH: B1 VH with N54A, Y100H
VL: B1 VL with S97A
For B4, the “binding affinity to peptide compared with h7C3-2 (in words)” value ([1]; h7C3-2 variants) was “higher binding affinity”.

B5: h7C3-1: 7C3 variant bearing Y100H mutation in CDR H3 (antibody, V domains shown)
VH: B1 VH with Y100H
VL: B1 VL
With B5 the “effect on h7C3 affinity (in words)” value [1] was “higher affinity”, the “FACS binding (%, 1 μg/ml)” value (NTSR1 on A549 cells) was 41% and the “FACS binding (%, 10 μg/ml)” value (NTSR1 on A549 cells) was 93.1%. For the same molecule, the “EC50” value (NTSR1 on A549 cells) was 7.6 ± 1.7 µg/mL.

B6: Y105A: h7C3 variant, Y105A in CDR H3 (antibody, V domains shown)
VH: B1 VH with Y105A
VL: B1 VL
With B6 the “effect on h7C3 affinity (in words)” value [1] was “no effect”.

B7: L99A: h7C3-1 variant, L99A in CDR L3 (antibody, V domains shown)
VH: B1 VH with Y100H
VL: B1 VL with L99A
For B7, the “decrease of h7C3-1 affinity” value [1, 2] was 70%.

B8: G96A: h7C3-1 variant, G96A in CDR L3 (antibody, V domains shown)
VH: B1 VH with Y100H
VL: B1 VL with G96A
With B8 the “effect on h7C3-1 affinity” value [1, 2] was “no effect” and the “binding affinity … compared with h7C3-1” value (NTSR1 on A549 cells) was “significantly diminished”.

B9: D104A: h7C3 variant, D104A in CDR H3 (antibody, V domains shown)
VH: B1 VH with D104A
VL: B1 VL
In the case of B9, the “effect on h7C3 affinity (in words)” value [1] is reported as “no effect”.

B10: P100A: h7C3-1 variant, P100A in CDR L3 (antibody, V domains shown)
VH: B1 VH with Y100H
VL: B1 VL with P100A
In the case of B10, the “effect on h7C3-1 affinity” value [1, 2] is reported as “no effect” and the “binding affinity … compared with h7C3-1” value (NTSR1 on A549 cells) is reported as “significantly diminished”.
